Legend:
DQA1*0102/DQB1*0602 = DQA1*0102/DQB1*0602 (Homo sapiens, UniProt P01909+P01920, A157G/A45G/C70R/E118A/E183D/E77G/F83G/G63E/H151Q/H199R/H252R/H253Q/I129T/I235V/I88M/INS77G/K197Q/L117V/L119F/L178F/L71W/L74F/L85Q/L91A/L98M/N214S/P87R/Q116E/Q76K/R102G/R240Q/R75S/R78G/S102Y/S185I/S41F/S97I/T121G/T122I/T172A/T86R/V229M/V68A/V73E/Y34C/Y41F/Y58L); assay: Competitive MHC class II binding assay; settings: control peptide Human Insulin B 1-15
Method: (§1) This is a characteristic of promiscuous HLA-DRB1* binders.
In addition, to identify lower affinity binders, the assay was also carried out under less stringent conditions. All the Der p binding peptides were seen to have a high ratio when tested against this allotype, showing they were low affinity binders compared to the control peptide. The DQA1*0102/DQB1*0602 binding assay uses a peptide from the B-chain of human insulin which is of lower affinity compared to those used in the DR assays. This dictates that the DQ assay is very sensitive and tends to produce very low ratio values for the strongest binders to this MHC Class II allotype. This sensitivity also accounts for the relatively higher number of DQ binding peptides within the panel screened.

[1] = Solubility pre-screen of peptides; settings: pre-screened for solubility in an aqueous, acidic milieu; YES/NO
[2] = Precipitation in aqueous solution of the binding assay; assay type: physicochemical; settings: lowest concentration at which an insoluble white precipitate is seen in the aqueous solution of the binding assay
Description: as §1

DRB1*1101 = DRB1*1101 (Homo sapiens, UniProt P01903+P01911, A100R/A169T/A87E/I96F/K41T/L162R/M171V/P40S/Q125H/Q178H/Q39Y/Q99D/R42S/S66Y/T262R/V115G/W38E); assay: Competitive MHC class II binding assay; settings: control peptide Influenza haemagglutinin 307-319
DRB1*1501 = DRB1*1501 (Homo sapiens, UniProt P01903+P01911); assay: Competitive MHC class II binding assay; settings: control peptide Human myelin basic protein 85-99
DRB1*0701 = DRB1*0701 (Homo sapiens, UniProt P01903+P01911, A100R/A102G/A103Q/D57E/D86V/E43K/F76Y/K127E/L162R/M171V/P40G/Q125H/Q99D/R33Q/R42Y/R54Q/S133A/S66F/T210M/V115G/Y107V/Y59L/Y89S); assay: Competitive MHC class II binding assay; settings: control peptide Influenza haemagglutinin 307-319
[3] = tested on: human MHC class II allotypes; assay: Competitive MHC class II binding assay, all allotypes; settings: competition assay, any allotype
Description: as §1
This is of significance as purities were seen to vary from 60-90%. This would have a considerable effect on the ability of a peptide to compete if it is relatively impure. […] Therefore, if purity is taken into consideration, they may in fact have an equivalent affinity to a peptide of a higher purity.

DRB1*0301 = DRB1*0301 (Homo sapiens, UniProt P01903+P01911, A100K/A102G/A103R/A169T/F55Y/I96L/K41T/L162R/M171V/P40S/Q125H/Q178H/Q39Y/R42S/S66N/T106N/T262R/W38E/Y61H); assay: Competitive MHC class II binding assay; settings: control peptide Myco. tuberculosis/leprae hsp 65 2-16
Description: as §1

Sequence | Relative binding, ratio of own IC50 to that of the control peptide, DQA1*0102 QB1*0602 (DQA1*0102/DQB1*0602) | Solubility test [1] | Precipitation in assay [2] | Relative binding, ratio of own IC50 to that of the control peptide, DRB1*1101 (DRB1*1101) | Relative binding, ratio of own IC50 to that of the control peptide, DRB1*1501 (DRB1*1501) | Relative binding, ratio of own IC50 to that of the control peptide, DRB1*0701 (DRB1*0701) | MHC Class II binding (in words) [3] | Relative binding, ratio of own IC50 to that of the control peptide, DRB1*0301 (DRB1*0301)
CIIHRGKPFQLEA [HDM20] | 2.37 | YES | None | 28 | 242.11 | 1.1 |  | 
DGLEVDVPGIDPNACH [HDM23A] | 0.76 |  | None |  |  |  | low affinity binding | 347
